According to PMC3954793, “SHP-2 Binds to Caveolin-1 and Regulates Src Activity via Competitive Inhibition of CSK in Response to H2O2 in Astrocytes” (PLoS ONE, 2014):

Assays:
caveolin-1/CSK complex = assay: Co-immunoprecipitation of caveolin-1 and CSK; type: cell-based, human; settings: HEK 293T cells transfected with WT or Y14A caveolin-1; 5 mM H2O2, 10 min
Description: (§1) cDNA encoding full-length human caveolin-1 was obtained from Thermo Scientific (Waltham, MA, USA). The Y14A caveolin-1 mutant was generated using a QuickChange site-directed mutagenesis kit (Stratagene, Santa Clara, CA, USA) using PCR. pCMV-SPORT6-caveolin-1 cDNA (25 ng) was used as a template and added to dNTP mix, Pfu buffer, Pfu turbo DNA polymerase and 125 ng of each of the mutagenic primers: sense, 5′-[…]-3′ and antisense, 5′-[…]-3′. Samples were then incubated at 95°C for 1 min, then for 20 cycles of 95°C for 1 min, 65°C for 4 min, and 68°C for 12 min. The methylated parental DNA template in the PCR product was digested using the DpnI (10 U) restriction enzyme for 3 h at 37°C. […] After mutagenesis, 1 µg of caveolin-1 wild-type (WT) or Y14A mutant DNA was transfected into HEK 293T cells using VIVAMAGIC transfection reagent (VIVAGEN, Seongnam, Korea) containing 10% FBS according to the manufacturer’s instructions for 24 h before treatment with 5 mM H2O2 for 10 min; the cells were then analyzed by immunoblotting.
(§2) Cells were plated and transfected with green fluorescence protein (GFP) siRNA (Samchully Pharm Co. Ltd., Seoul, Korea) as a control group and human CSK siRNA and human SHP-2 siRNA from Bioneer (Daejeon, Korea) using Lipofectamine RNAiMAX (Invitrogen, Carlsbad, CA, USA) according to the manufacturer’s instructions to achieve a final concentration of 300 nM. […]

caveolin-1/SHP-2 complex = assay: Co-immunoprecipitation of caveolin-1 and SHP-2; type: cell-based, human; settings: HEK 293T cells transfected with WT or Y14A caveolin-1; 5 mM H2O2, 10 min
Description: as §1, §2

B1: WT caveolin-1: full-length human wild-type caveolin-1 expressed in transfected HEK 293T cells (protein)
chain: MSGGKYVDSEGHLYTVPIREQGNIYKPNNKAMADELSEKQVYDAHTKEIDLVNRDPKHLNDDVVKIDFEDVIAEPEGTHSFDGIWKASFTTFTVTKYWFYRLLSALFGIPMALIWGIYFAILSFLHIWAVVPCIKSFLIEIQCISRVYSIYVHTVCDPLFEAVGKIFSNVRINLQKEI
modifications: phosphotyrosine at 14 after H2O2 treatment
notes: full-length human wild-type caveolin-1 expressed in transfected HEK 293T cells
For B1, the “interaction between CSK and transfected caveolin-1” value (caveolin-1/CSK complex) was “An interaction between CSK and WT caveolin-1, but not Y14A mutant caveolin-1, was observed in the presence of H2O2” and the “interaction of SHP-2 with transfected caveolin-1” value (caveolin-1/SHP-2 complex) was “SHP-2 interacted with WT caveolin-1, but not mutant caveolin-1, and only in the presence of H2O2”.
